Common to all, as to experiment: peptide SPOT array, c-Myc-tagged receptor at 1 uM or 100 nM, anti-c-Myc-Cy3
Experiment [1] deals with Bcl-xL, Q07817.
In experiment [2] the target is T1, Bfl-1, Q16548.
T1 chain: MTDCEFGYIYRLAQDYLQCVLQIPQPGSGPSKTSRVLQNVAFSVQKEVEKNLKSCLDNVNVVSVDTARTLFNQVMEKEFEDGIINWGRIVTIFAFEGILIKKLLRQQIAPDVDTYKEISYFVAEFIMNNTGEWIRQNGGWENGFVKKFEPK

Experiment [3] concerns the target T2, Mcl-1, Q07820.
T2 chain: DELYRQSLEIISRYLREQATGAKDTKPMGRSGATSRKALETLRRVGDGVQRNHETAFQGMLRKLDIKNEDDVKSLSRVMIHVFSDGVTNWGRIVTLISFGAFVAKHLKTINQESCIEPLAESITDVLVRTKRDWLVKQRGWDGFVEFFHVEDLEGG

Sequence of Bcl-xL, Q07817 (Q07817 1-209): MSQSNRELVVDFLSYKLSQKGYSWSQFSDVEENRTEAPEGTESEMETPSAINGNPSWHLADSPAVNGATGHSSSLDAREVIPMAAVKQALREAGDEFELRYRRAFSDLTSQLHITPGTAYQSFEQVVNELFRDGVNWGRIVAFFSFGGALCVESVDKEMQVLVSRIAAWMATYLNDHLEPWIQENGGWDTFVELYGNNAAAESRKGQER

In the case of GTAVAYRGAHDRGRGRAVYNTFRAAP, the SPOT signal as a fraction of Bim BH3's signal on the same receptor and array was determined as 2.76 in experiment [1], 1.47 in experiment [2] and 1.35 in experiment [3].

As for LALLAQPSHLMRQVLRSVFGHICSHL [MYBBP1A], the results for the SPOT signal as a fraction of Bim BH3's signal on the same receptor and array in experiment [1], in experiment [2] and in experiment [3] were 0.75, 0.54 and 0.54, respectively.

In the case of AFGLGDLPNLLGLVGDQLGDTERKRR [ADAMTS14], the SPOT signal as a fraction of Bim BH3's signal on the same receptor and array in experiment [1] was determined as 0.1; in experiment [2], 0.06; in experiment [3] it was 0.08.

On to MSILTIASAVLEFVGDGIYNNTMGHV [TAP1], for which the figures for the SPOT signal as a fraction of Bim BH3's signal on the same receptor and array in experiment [1], in experiment [2] and in experiment [3] were 0.06, 0.04 and 0.05, respectively.

As to MSLFLRVVFSFTMFGDLFEEEYSTVS, the SPOT signal as a fraction of Bim BH3's signal on the same receptor and array is 0.07 in experiment [1], 0.04 in experiment [2] and 0.07 in experiment [3].

Take CGEWTRRSLHDRVLGRQLILPTDKGV [FAM149A]: the SPOT signal as a fraction of Bim BH3's signal on the same receptor and array came to 0.91 in experiment [1], 0.86 in experiment [2] and 0.72 in experiment [3].

As to SEIMHSFAKCIEVMLDGCLNNEHFEE [IPO5], the SPOT signal as a fraction of Bim BH3's signal on the same receptor and array in experiment [1] was 0.1; in experiment [2], 0.04; in experiment [3], 0.06.

Turning to VLLTLLVAAVLRCQGQDVQEAGSCVQ [COL2A1], the SPOT signal as a fraction of Bim BH3's signal on the same receptor and array in experiment [1] turned out to be 0.06; in experiment [2], 0.04; in experiment [3] it was 0.04.

KLALEQRCREDRARGRRLEETLPRRI [KIF19]: the SPOT signal as a fraction of Bim BH3's signal on the same receptor and array in experiment [1] stood at 0.83; in experiment [2] it was 0.43; in experiment [3] it was 0.44.

As for NNNMDVESRTDATMGDTLASRGLLDA [SEC16A], the SPOT signal as a fraction of Bim BH3's signal on the same receptor and array in experiment [1] turned out to be 0.05; in experiment [2] it was 0.06; in experiment [3], 0.03.

Consider LFWTPLLVVLLAGLLDTEAQQTTLHP [SGCA], for which the SPOT signal as a fraction of Bim BH3's signal on the same receptor and array in experiment [1] is 0.06; in experiment [2], 0.08; in experiment [3], 0.05.

Turning to QRKHEGFERDLAALLDKVNSLGETAE [SPTAN1], the SPOT signal as a fraction of Bim BH3's signal on the same receptor and array in experiment [1] came to 0.1; in experiment [2], 0.08; in experiment [3], 0.11.

Consider QEQEQHVPFDIHTYLDQLVSRFPQLN [NCAPH2], for which the SPOT signal as a fraction of Bim BH3's signal on the same receptor and array in experiment [1] came out at 0.06; in experiment [2], 0.04; in experiment [3], 0.04.

In the case of YIVLGLRKTTLQKVLKEVAELVGRVG [NLRX1], the SPOT signal as a fraction of Bim BH3's signal on the same receptor and array stood at 0.35 in experiment [1], 0.23 in experiment [2] and 0.25 in experiment [3].

LTETSLISGNLHRILDITSCSVLWLN [FBXW5]: the SPOT signal as a fraction of Bim BH3's signal on the same receptor and array in experiment [1] was found to be 0.06; in experiment [2] it was 0.07; in experiment [3], 0.04.

On to MSLFLRVVFSDTMFGDLFEEEYSTVS, for which the SPOT signal as a fraction of Bim BH3's signal on the same receptor and array is 0.06 in experiment [1], 0.04 in experiment [2] and 0.05 in experiment [3].

As for TAAAAYRGAHLRGRGRTVYNTFRAAA, the SPOT signal as a fraction of Bim BH3's signal on the same receptor and array was 2.64 in experiment [1], 1.71 in experiment [2] and 1.37 in experiment [3].

ERLKGQLCDVLLIVLDQKFRAHKNVL [ZNF295]: the SPOT signal as a fraction of Bim BH3's signal on the same receptor and array turned out to be 0.41 in experiment [1], 0.19 in experiment [2] and 0.19 in experiment [3].

For the molecule AEVMRQRGINDRYLGKVLELVLRSPA [KIAA0664], the SPOT signal as a fraction of Bim BH3's signal on the same receptor and array stood at 0.86 in experiment [1], 0.49 in experiment [2] and 0.53 in experiment [3].

On to RVCPYYLSRNLKQQLDIIFMPYNYLL [RTEL1], for which the SPOT signal as a fraction of Bim BH3's signal on the same receptor and array in experiment [1] worked out at 1.16; in experiment [2] it was 0.52; in experiment [3] it was 0.75.

For the molecule SQEPLEKAQLDALVGDQLIQSHHYAA [MCF2L2], the SPOT signal as a fraction of Bim BH3's signal on the same receptor and array in experiment [1] came out at 0.06; in experiment [2], 0.04; in experiment [3] it was 0.03.

In the case of LALMMQLARELKTLARDLGMAVVVTN [RAD51L3], the SPOT signal as a fraction of Bim BH3's signal on the same receptor and array was found to be 0.1 in experiment [1], 0.07 in experiment [2] and 0.12 in experiment [3].

Consider PYLSKHRADRDRRLGDFLNQESFDLA, for which the SPOT signal as a fraction of Bim BH3's signal on the same receptor and array is 0.49 in experiment [1], 0.56 in experiment [2] and 0.51 in experiment [3].

Consider AIILCNVCGNDCTDCDRFLHLHRRTK [MYCBP2], for which the SPOT signal as a fraction of Bim BH3's signal on the same receptor and array was 0.2 in experiment [1], 0.13 in experiment [2] and 0.16 in experiment [3].

For the molecule SHFVACMTAILNQMGDQHYSFYIETF [DOCK2], the SPOT signal as a fraction of Bim BH3's signal on the same receptor and array in experiment [1] is 0.07; in experiment [2] it was 0.05; in experiment [3], 0.06.

With PYLSKHRADRMRRLLDFLNQESFDLA, the values for the SPOT signal as a fraction of Bim BH3's signal on the same receptor and array in experiment [1], in experiment [2] and in experiment [3] were 0.67, 0.53 and 0.52, respectively.

For TETKATFGVHLKIVGDWTERFRDLLL [NOX4], the SPOT signal as a fraction of Bim BH3's signal on the same receptor and array in experiment [1] stood at 0.16; in experiment [2] it was 0.11; in experiment [3], 0.08.

In the case of SKEVAILCSFLLGLGDSCFNTQLLSI [MFSD11], the figures for the SPOT signal as a fraction of Bim BH3's signal on the same receptor and array in experiment [1], in experiment [2] and in experiment [3] were 0.09, 0.04 and 0.05, respectively.

The values are drawn from PMC4072508, “Genome-Wide Prediction and Validation of Peptides That Bind Human Prosurvival Bcl-2 Proteins” (PLoS Computational Biology, 2014).
